Kd data for ten substances are collected here from US20210024651A1.

One experiment concerns the target moFcgRIIb. Kind of experiment: -; reported.
Experiment [1] addresses moFcgRIV. The experiment can be described thus: -; reported.
In another experiment the target is moFcgRIII. The experiment can be described thus: -; reported.
Experiment [2] addresses moFcRn. Kind of experiment: -; reported.
Experiment [3] addresses moFcRn. Kind of experiment: BLI. For orientation: Biolayer interferometry detects binding as a change in optical thickness at a sensor tip.
For experiment [4], the target named is moFcgRIV. Kind of experiment: BLI.

The term pKd denotes the negative decadic logarithm of the Kd, by convention in mol/L. A lower pKd goes with a high Kd.

pKd: −log10 of the molar value.

Regarding mIgG2b, the pKd with moFcgRIIb is 6.35; with moFcgRIV [1], 7.23; in the experiment with moFcgRIII, 5.81; in the experiment with moFcRn [2], 6.26.

Consider hIgG1, for which the pKd in the experiment with moFcgRIIb was 5.96; with moFcgRIV [1], 6.55; with moFcgRIII, 5.03; in the experiment with moFcRn [2], 7.14.

For hIgG4, the pKd with moFcgRIIb was 4.96; in the experiment with moFcgRIV [1], 4.59; with moFcgRIII it was 4.68; with moFcRn [2], 6.94.

Take mIgG2a: the pKd in the experiment with moFcgRIIb was 5.62; with moFcgRIV [1], 7.46; with moFcgRIII, 5.84; with moFcRn [2], 6.31.

With hIgG2, the pKd in the experiment with moFcgRIIb was 5.10; in the experiment with moFcgRIII, 5.01; in the experiment with moFcRn [2], 7.20.

In the case of Seribantumab hIgG2, the pKd in the experiment with moFcRn [3] was 8.17.

For the substance LJM716 hIgG1, the pKd with moFcgRIV [4] was 6.15; with moFcRn [3] it was 7.89.

mIgG3 gave a pKd with moFcRn [2] of 6.85.

Turning to mIgG1, the pKd with moFcgRIIb is 6.52; with moFcgRIII it was 5.49; in the experiment with moFcRn [2], 5.94.

Take hIgG3: the pKd in the experiment with moFcgRIIb was 6.15; with moFcgRIV [1], 6.77; with moFcgRIII, 5.89; with moFcRn [2], 6.64.
